Experimental data published in patent US6835378B2, “Method and compositions for inhibiting thrombin-induced coagulation” (The Texas A&M University System University, priority 2001, dated 2004).
“Also recorded” adds a separate entry of the source.

How the values were obtained:
immobilized Fg = target: T1, immobilized Fg (Homo sapiens, UniProt P02675); assay: ELISA: rSdrG(50-597) binding to immobilized Fg
T1 construct: purchased Enzyme Research Labs
T1 sequence (P02675 31-491): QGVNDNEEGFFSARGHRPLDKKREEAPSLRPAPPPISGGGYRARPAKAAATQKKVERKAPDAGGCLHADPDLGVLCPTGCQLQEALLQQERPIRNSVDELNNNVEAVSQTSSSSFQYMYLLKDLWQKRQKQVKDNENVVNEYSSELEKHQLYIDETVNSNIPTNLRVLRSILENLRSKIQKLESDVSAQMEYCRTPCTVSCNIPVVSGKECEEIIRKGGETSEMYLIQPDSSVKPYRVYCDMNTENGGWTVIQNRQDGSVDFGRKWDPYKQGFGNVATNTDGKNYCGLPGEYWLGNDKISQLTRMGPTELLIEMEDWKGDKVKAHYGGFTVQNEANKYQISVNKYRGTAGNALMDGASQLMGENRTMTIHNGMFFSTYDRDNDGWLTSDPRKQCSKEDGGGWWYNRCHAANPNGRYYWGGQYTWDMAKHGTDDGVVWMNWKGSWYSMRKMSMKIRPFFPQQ
T1 sequence (P02671 20-629 partner limits assumed): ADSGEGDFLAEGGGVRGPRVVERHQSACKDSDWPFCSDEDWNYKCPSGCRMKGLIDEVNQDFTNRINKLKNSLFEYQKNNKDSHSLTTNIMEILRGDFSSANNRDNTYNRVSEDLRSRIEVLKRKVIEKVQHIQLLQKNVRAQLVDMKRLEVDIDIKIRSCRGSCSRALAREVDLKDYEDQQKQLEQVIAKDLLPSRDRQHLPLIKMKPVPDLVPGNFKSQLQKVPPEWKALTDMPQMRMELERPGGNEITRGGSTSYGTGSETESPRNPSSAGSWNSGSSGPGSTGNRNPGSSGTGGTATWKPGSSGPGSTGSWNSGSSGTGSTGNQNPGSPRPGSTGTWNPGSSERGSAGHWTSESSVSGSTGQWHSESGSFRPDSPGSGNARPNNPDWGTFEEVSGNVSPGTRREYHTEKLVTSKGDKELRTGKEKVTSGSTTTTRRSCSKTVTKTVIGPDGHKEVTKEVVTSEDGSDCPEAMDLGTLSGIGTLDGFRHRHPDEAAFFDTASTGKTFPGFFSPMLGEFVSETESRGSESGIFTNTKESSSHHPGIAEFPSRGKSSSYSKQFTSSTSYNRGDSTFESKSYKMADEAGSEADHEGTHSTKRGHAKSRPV
T1 sequence (P02679 27-433 partner limits assumed): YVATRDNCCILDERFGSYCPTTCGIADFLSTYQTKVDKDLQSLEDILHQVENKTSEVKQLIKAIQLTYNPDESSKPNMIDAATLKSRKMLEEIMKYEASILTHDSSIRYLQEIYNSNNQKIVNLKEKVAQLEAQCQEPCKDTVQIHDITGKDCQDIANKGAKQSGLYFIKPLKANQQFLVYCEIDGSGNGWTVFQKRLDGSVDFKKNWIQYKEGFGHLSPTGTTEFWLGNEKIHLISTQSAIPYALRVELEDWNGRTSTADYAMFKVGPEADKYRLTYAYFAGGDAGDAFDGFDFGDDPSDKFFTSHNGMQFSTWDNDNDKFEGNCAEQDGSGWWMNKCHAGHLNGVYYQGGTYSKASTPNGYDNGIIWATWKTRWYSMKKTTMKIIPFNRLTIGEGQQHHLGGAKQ
Procedure: ELISA—Microtiter plates (Immulon 4, Dynatech Laboratories Inc.) were coated with 1 μg of Fg (Enzyme Research Labs) in PBS, pH 7.5 for 18 h at 4° C. Plates were washed three times with PBS, 0.05% Tween 20 (PBST) and blocked with 1% (w/v) bovine serum albumin (BSA) for 1 h at room temperature. Plates were washed three times with PBST and rSdrG(50-597), diluted into PBS, was added to the wells and the plate was incubated for 1 h at room temperature. Plates were washed three times with PBST and bound rSdrG(50-597) was detected by adding a 1:2000 dilution of an anti-His-tag mAb (Clontech) in PBST, 0.1% BSA. Plates were incubated for 1 h at room temperature and then washed three times with PBST. A 1:2000 dilution of goat anti-mouse alkaline phosphatase (AP)-conjugated polyclonal antibodies (Bio-Rad) in PBST, 0.1% BSA were added to the wells and the plate was incubated for 1 h at room temperature. Plates were washed three times with PBST and developed with p-nitrophenyl phosphate (Sigma) in 1 M diethanolamine, 0.5 mM MgCl2, pH 9.0 at room temperature for ˜30 min. Plates were read at 405 nm using an ELISA plate reader (Thermomax microplate reader, Molecular Devices).

[1] = test system: Serine protease-digested Fg; assay: ELISA with serine protease-treated immobilized Fg; type: binding, human; settings: 30 min at room temperature
Procedure: Fg coated microtiter wells were pretreated for 30 min at room temperature with ancrod (•), PBS (untreated) (▾), thrombin (♦) or contortrixobin (▪). Plates were blocked, washed and incubated with a serine protease inhibitor (1 NIH unit/ml hirudin for thrombin and 100 μg/ml PMSF for ancrod and contortrixobin). Biotin labeled rSdrG(50-597) (25-1000 nM) was incubated in the wells for 1 h at room temperature. Values represent the mean±standard deviation of triplicate wells.
The A[…] chain may interfere with rSdrG(50-597) binding to the Bβ chain and this observation may be due to the absence of FpA, thus making the N-terminus of the Bβ chain more easily accessible.

B1: rSdrG(50-597): recombinant His-tagged A region (residues 50-597) of SdrG, a fibrinogen-binding MSCRAMM from S. epidermidis (protein)
chain: HHHHHHAEENTVQDVKDSNMDDELSDSNDQSSNEEKNDVINNSQSINTDDDNQIKKEETNSNDAIENRSKDITQSTTNVDENEATFLQKTPQDNTQLKEEVVKEPSSVESSNSSMDTAQQPSHTTINSEASIQTSDNEENSRVSDFANSKIIESNTESNKEENTIEQPNKVREDSITSQPSSYKNIDEKISNQDELLNLPINEYENKVRPLSTTSAQPSSKRVTVNQLAAEQGSNVNHLIKVTDQSITEGYDDSDGIIKAHDAENLIYDVTFEVDDKVKSGDTMTVNIDKNTVPSDLTDSFAIPKIKDNSGEIIATGTYDNTNKQITYTFTDYVDKYENIKAHLKLTSYIDKSKVPNNNTKLDVEYKTALSSVNKTITVEYQKPNENRTANLQSMFTNIDTKNHTVEQTIYINPLRYSAKETNVNISGNGDEGSTIIDDSTIIKVYKVGDNQNLPDSNRIYDYSEYEDVTNDDYAQLGNNNDVNINFGNIDSPYIIKVISKYDPNKDDYTTIQQTVTMQTTINEYTGEFRTASYDNTIAFSTSSGQGQGDLPPE
binding to immobilized Fg (immobilized Fg): bound immobilized Fg | binding to Fg treated with contortrixobin [1]: could not bind; also recorded: not able to bind | binding to Fg treated with thrombin [1]: could not bind | binding to Fg treated with ancrod ([1]; versus untreated Fg): bind better; also recorded: still able to bind
